{"source": "patent US7393918B2", "about": "“Protein binding miniature proteins and uses thereof” (priority 2003, dated 2008)", "key": {"Mena1-112 EVH1 domain": {"target": "Mena1-112 EVH1 domain (Mus musculus, UniProt Q03173)", "sequence (Q03173 1-112)": "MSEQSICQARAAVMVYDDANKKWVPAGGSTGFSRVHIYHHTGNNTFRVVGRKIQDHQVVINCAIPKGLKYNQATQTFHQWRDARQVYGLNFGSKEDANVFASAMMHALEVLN", "experiment": "tryptophan fluorescence perturbation analysis of EVH1 domain binding", "conditions": "all EVH1 domains tested (Mena1-112, VASP1-115, Evl1-115)"}, "Mena1-112": {"target": "Mena1-112 (Mus musculus, UniProt Q03173)", "sequence (Q03173 1-112)": "as above", "experiment": "competition with pGolemi^Flu for binding to Mena1-112", "conditions": "read-out: IC50, competition with pGolemi^Flu for binding to Mena1-112"}, "L. monocytogenes": {"tested_on": "L. monocytogenes", "experiment": "L. monocytogenes actin-based motility in Xenopus laevis egg cytoplasmic extracts", "parameters": "species or system Listeria monocytogenes", "protocol": "Errors bars show the intraquartile range.\nL. monocytogenes motility in mammalian cells and extracts is due to interactions between the 639-residue bacterial protein ActA and host proteins that recruit and activate actin polymerization. Addition of 10 μM ActA11 decreased the median speed of L. monocytogenes by 89%, consistent with previous work. […] Further experimentation will be required to fully understand the molecular events that result in altered motility."}}}
{"substance": "ActA11: 11 residue peptide comprising PPII repeat 2 of L. monocytogenes ActA; best previously known Mena ligand (DFPPPPTDEEL; ActA11, peptide comprising PPII repeat of ActA protein)", "values": [{"measurement": "Krel among EVH1 domains", "setting": "Mena1-112 EVH1 domain", "value": "< 3"}, {"measurement": "IC50", "setting": "Mena1-112", "value": "4 ± 0.2", "unit": "µM"}, {"measurement": "decrease of median speed of L. monocytogenes", "setting": "L. monocytogenes; 10 μM", "value": 89, "unit": "%"}, {"measurement": "discontinuous tail formation of L. monocytogenes", "setting": "L. monocytogenes; any concentration tested", "value": "Discontinuous tails were not observed"}]}
